Source: the DeepSol protein solubility set

assay: soluble on expression in E. coli; label from the status in PepcDB or PDB records

Sequence	soluble on expression in E. coli
MKYLAAYLLLVQGGNAAPSAADIKAVVESVGAEVDEARINELLSSLEGKGSLEEIIAEGQKKFATVPTGGASSAAAGAAGAAAGGDAAEEEKEEEAKEESDDDMGFGLFD	soluble
MDTYKLILNGKTLKGETTTEAVDAATAEKVFKHYANEHGVHGHWTYDPETKTFTVTE	soluble
MKFEAIAVEKIPLIHEGDNLPSIICEKIGLQDRDIMIIASTIVAKAEGEIFRLEDITPGEEALEIAARTGKDPRFIQAVLSKSREVFVETPFMLVTTLAGHTCVNAGIDESNIENGFLLYPPENPDASALKIGKELEKLSGKKLSIIITDTNGRAFKIGQTGVAIGIYNIKPVKRWIGEKDLFGKVLEITEQAIADELAGAANLLMGEGAGGIPVVIIRGLDYYCEGDTSIKESYRPENMDVIKQGLRCLRNKK	not soluble
GHMGKPDISAKDLRNIMYDHLPGFGTAFHQLVQVICKLGKDSNSLDIIHAEFQASLAEGDSPQCALIQITKRVPIFQDAAPPVIHIRSRGDIPRACQKSLRPVPPSPKIDRGWVCVFQLQDGKTLGLAI	soluble
MKYCKFCCKAVTGVKLIHVPKCAIKRKLWEQSLGCSLGENSQICDTHFNDSQWKAAPAKGQTFKRRRLNADAVPSKV	soluble
MDPAEVEFLAEKEMVKIIPNFSLDKIYLIGGDLGPFNPGLPVEVPVWLALNLKQRQKCRIVPPEWMDTDKLEDIREQERKLDTFTPIPNPYYMELTKLLLNHAADNIPKADEIRTLVKDIWDTRMAKLRLSADSFISQQEAHAQLDNLTLMEINTTRSFLLDSLNYMYKLRSNLQPGRSKDY	not soluble
MAISKKKRFFFDLAQDEDDAETVQEVKKVEQQLKLEPVVQPQHDLTNQTKANQSSQDRKFFSKDMPQFDFGPLLKFGDEFVKSFNQFPKQEPQTSTQPVNVQPQSEPTNFNNQVPTQPVHQTAEVHLNEFQQPTTTNFNQQPVATSNIQVEATQPIVEPVPQPEPQPAVEQPQVKQTTRPSNKLQEEENLPPPKAKVPGIIPLERQERLTTGVHFYTSTRVWNKVKRYAKAVNIPISRILTMILDQVIEE	soluble
MSLTHEEAVAIHKEKMEALEMQMKLILVLDLDQTVLHTTYGTSSLEGTVKFVIDRCRYCVKLRPNLDYMLRRISKLYEIHVYTMGTRAYAERIVEIIDPSGKYFDDRIITRDENQGVLVKRLSRLFPHDHRNIVILDDRPDVWDYCENLVLIRPFWYFNRVDINDPLRLKRKIEKEAGENKALEEGHHHHHH	not soluble
MVYVIGMGARGREGLSLKALRRLEEAEVLIGGRRHLAHFPDHPGEKVPVQGPLEALLDLAEARLKEGKKVAFLASGDPLFYGIGKRVLERFPEAEVHPAPTAFQEAFARLKLPWDQARFFSLHGRPLGGVLLELSLSPLSVVYTDPEHTPAGIARALLEMGVDARAHVAERLGEEDERVRSFAGLKEVAEERFLDPNVLILEAKGPLPPRLGFFPDEAFEQRMPKKGLITKREVRLLALGLLGLPPDGVLWDIGAGTGSVGIEAARLAPWGEVYAVEKNPESWPHIVENARRFGAFNLHLVKGEAPEALKGLPAPHAVFVGGSGGELEEILRVSLKALRPGGRLVVAAITLENLLAAYGFLKGTGLPLEGFQVQASRVVPLARYHRLEAQNPITLLAVTKEGA	soluble
MGSDKIHHHHHHMAVINPFVVGGYVSPRYFCDRVAETENLIRNLINGRNVALVSTRRMGKTGLIRHCFYQPLIKEGYYTFFIDIYATSSLKEFVFALGKGIFEKLKPQGNKFIDRFFSIITSLRIGFKLDSITGEPILELGLGDIHAPETTLEEIFIYLEQADKPCIVAIDEFQQISSYPEKNLEAILRTKVQHCSNSNFVFAGSQRHIMMNIFNSPSRPFYQSVSMMHLGAIPLEVYKPFVKGLFEENGKKVTDQLVENVYTLFDGHTWYVQLILNELFILTDKKGICDVPMINLALNNIIATQDFTFQEIFSRLPEKQKEIMIAIAKEQKAKGVTSAAFIKKYRLTSASSVQSGLKGLLEKDMLTQESGGYQVYDRLFNIWLRRNY	not soluble
MGSDKIHHHHHHMWEVRYLNAELLDLKLWGEGCRLYQIRQMGDDEICLIQTDDTPQESLCERWQVVYAERGAVQQLLFEFTDEAEACEFMYREIKRIKHPHLVGLFPTDAEAEQFCQVLTQLEIQFSHDPQGRVRVYDQEIFTVERHFGCQLPLRKWLSVPERIHVTLARLRKFDPYNCYAQITTNPPIGSEAKLSELEAEHRIKLPEVYRTFLLEVCNGGNWERLGHYWSAEEVMANNSAQLWNQPLPEFLAKLKAAKSGDWLTNPGNRQYPGLLRIVDWDNPVRDLFLTQEGYEVEIQGDWIRFCEFSPEQWLKDFLDDIQYGLFPIEGLLAFLRSGELIRDYPYFHTVNFARLLAETIGLNIDPELTNEQVKMSDEIDYKINQWRIENMGKMRYNFGFNAEQAEVRRQRILERLEYLYQLYS	not soluble
MKERMQKTSAQAHDFPQRARTESEWYEGVQTFMWMTEDNIVEVPFDKEHLLEIILSPSNLNKAYKAVVRNNGSGGIDKMSCEQLLSWLKANKDELIISLQSGTYRPNPVRRVEIPKDNGKKRLLGIPTVVDRLVQQAINQVLTLIYERQFSKTSYGFRPQRGCHDALRKAQKIVSEGYIYVVDLDLERFFDTVSHSKLIEILSRTIKDGRVISLIHKYLRSGVINRGMFEMSTEGTPQGGPLSPLLSNIMLNELDKELERRGHPFVRYADDAMIFCKSKRAAKRVRESITLFIEGKLFLKVNHEKTVVSYVKGVKFLGYSFYVKKGDCILLVHSKSKNKMKSKLKELTSRSNGWGYEKRKQKLKDYIRGWIAYFCLAQMKRLCIETDEWLRRRIRMCIWKSWKNAKTRVANLKKCGVSEWQAYQWGNTRLGYWRVSNSPIVTFVMSNDKLRKAGYMEFMDCYLKWCPKLEHHHHHH	soluble
MSLRSQQSGILGVIVADIRNPYFTALIRAVEEVAYRAGMRVTLCNTDEDPEREALYLELMQEERITGLIFAPTRVTVGRMHELALDYPTVLVDRAGPGSRYDSVVLDNGAAMAELVAHLQAQGYRRIGGLFGSTSTTAAERRDGYLAAMRAQGLQPDYREVAPTAEAAIAELGAWLANDQRPEAIVTSNSLLLMGALKAARTAGLRLPQDLALAGFDNERWTDLVEPGITVVEQPVEDMGRAAMSLLLERLSNRQLPIRRLVMTGRCVVRGSTAEGHHHHHH	soluble
MAKNGGFSLFAKKEKRFIFEGRHSASDKLVNGEVSAFTEEEARKKLAKRGIRPLQITRVKTSSKRKITQEDITVFTRQLSTMIKAGLPLMQAFEIVARGHGNPSMTEMLMEIRGEVEQGSSLSRAFSNHPKYFDRFYCNLVAAGETGGVLESLLDKLAIYKEKTQAIRKKVKTALT	not soluble
MIEKVLVVVIIGVVGAYAQGSCRTDQHEMTCRGKNSLHDLKKDQDYLEVDTLNVHQAKLDLTDDLVPDGINLSHLTLLNATDNQITRIGRRGFDKIRNMQFLYLSINQISHSQPDPFQALEKLKRLEMNDALDGNMEEKSDMLRNFFHSKNSFVHLAQIELNKNKIEGIYPKTFCGIQGLQRLELSNNRIPSFDFARTCLKELKALMLAGNLIQKIPADIWDFLPSLSSLDISNNPIDCDCATIRLLSGDDVVFLNQADTKCASPPELEGKRIFELSRDYCKTTRNPRGKASFFQFLVLFVIAVGSEFLF	not soluble
MSKLIITDNLEMLTEQGATRRRLLQAGLGACALLAMPAANAAYSRVYEKRVSLLNLHTGERVRTAYWERGKYIPEALRMIEKVLRDHRSGDIHRIDPRLLDLMQHLHHKTGNSKEFQVVSGYRSPATNAALSVQSHGVAKNSLHMQGKAIDIRLPGVPLHVLRRAAMSMHAGGVGYYPKSNFIHIDTGNVRYW	not soluble
FADRMVIKAQSPAGFAEEYIIESIWNNRFPPGTILPAERELSELIGVTRTTLREVLQRLARDGWLTIQHGKPTKVNNFWETSGLNILETLARLDHESVPQLIDNLLSVRTNISTIFIRTAFRQHPDKAQEVLATANEVADHADAFAELDYNIFRGLAFASGNPIYGLILNGMKGLYTRIGRHYFANPEARSLALGFYHKLSALCSEGAHDQVYETVRRYGHESGEIWHRMQKNLPGDLAIQGR	soluble
MQRGKVKWFNNEKGYGFIEVEGGSDVFVHFTAIQGEGFKTLEEGQEVSFEIVQGNRGPQAANVTKEA	soluble
MSSVYDFNVKNANGDDVSLSDYKGKVLIIVNVASQCGLTNKNYTQLKELLDVYKKDGLEVLAFPCNQFAGQEPSCEIDIQAFVADKFKFEPTLFQKIDVNGDKQSPLFKFLKNEKGGFMFDAIKWNFTKFLVGRDGKIIKRFGPTTDPKDMEKDIKEALGEKL	not soluble
MKCSKCGREAVYFAKYEGKYYCHKHFNEMVESKVKRTIRKYRMIKKGERIGVAVSGGKDSVVLLHLLAKLRKKFPFEIVAITIDEGIKGYRDKSIKVAKKNAELLGVEHHIYRFKDYIGFTLDETVEIMGARGERLGACSYCGVWRRWLLNKAAEELKVDKLALGLNLDDEVQMFLMNLMRGDVARLGRTGPYYEVIHEGLVPRIKPLREVPEKEIVLYAVLNNIEVDLSECPYAVEAFRAEIRDWLNEMEEKHPGTKYQLLRSYDKIFPLLAKTYAKKVKLNRCKICGQPTSGEICKACQFRLQVKERAEKLKFSLSQR	soluble
SQKPCKENEGKPKCSVPKREEKRPYGEFERQQTEGNFRQRLLQSLEEFKEDIDYRHFKDEEMTREGDEMERCLEEIRGLRKKFRALHSNHRHSRDRPYPI	soluble
MAFIGRDDDLKQLQECFTERRAQLVFVYGRRRVGKTETLIQLAKDKETLFFAAQNATKDEQLASFSRLMFEAGAPGKDYLSQYPSWERALTELTRLPEPSDGGRRLVIFDEFPYLVKSDPSLPSVLQNLWDHTLRHANLMIVICGSAMSFIEKELLGEKSPLYGRATGILKMLPMPYWDAAQFFPNYSGEDKALAYAILGGIPRYLEEFDPDETIDANVKRHILRRIAPLYSEVEFLLHEELRETAKYNSVIRAIALGATSLNEIATHTMMANATVSSYLANLMELGIVEREFPVTAKPKERAKGSRGLYQLSDNFFRFWYSFVFPYRSELERGDVEGVYERHIKPVLHDFAGKPFEGLCREWMWRESAAGRLPFRARAVGRWWDRQDEIDVMAVDNASDAAIVGECKFRNAPVDRSVLNLLRDRAARTGIGQRTYLLFSLGGFDQSLVDDAAASQSDVQLVGIDELFHELEHHHHHH	not soluble
TRGAKDTVMIVNAQGGMEPREVTVAQQQGTNWIVTSGLKDGDKVVVEGISIAGITGAKKVTPKEWASSENQAAAPQSGVQTASEAKPASEAK	not soluble
MGSDKIHHHHHHMTVCVAVKVQDCIVFAADSTTSLQAVGANGEHVTMNTYDHANKLFNLRKGCPVAAMTAGIGNFGGSSISTVSKDFRSLIDRRAEGYALNWENYTIEEIVGLARKYFFEERFSSLSEKPQGSFQYWVGGYSSGEQMGEVWQFQIHNGECLEPQCSISRNVASGLAWGGAPEAINRLILGYGQRIGDALVEGGLDASLVPQAIDGIARYTQCSLVHAAMPTGDAIDLAKFLAETTKQFVRFMPGSNSVGGDLDIATITKHENFKWIARKHFYNTRINPLETNHA	not soluble
MTEIVERMKKKNIVKPIVYGNTATPFGYKRDSDQHTHQWTVFLKPYLIEDPTKWIRKVQFKLHESYAVPYRVVEKPPYEVTETGWGEFEIQIRIYFVDPNEKPITAFHYLRLFQPTIELPSGNQIVCMEFYDEIIFQEPTVQMYKALQASDGKRPDKQAFLNDIEQVKTRTRELGEVAQKEIAAEIEDLRESLKDAHKMIVKYNTELAEQE	not soluble
